From patent publication US20030165527A1 (published 2003) come the findings set out here.

The test deals with T1, collagen type I from calf skin (Boehringer) (calf, UniProt P02453 162-1217; P02465 80-1117).
T1 construct: Bought preparation coated on microtiter wells
Kind of test: not described; control for the collagen-Fn inhibition ELISA. On the technique in general: An ELISA detects its analyte on a solid surface through an enzyme-linked reagent.

T1 sequence (P02453 162-1217 limits assumed, chain 1 of 2): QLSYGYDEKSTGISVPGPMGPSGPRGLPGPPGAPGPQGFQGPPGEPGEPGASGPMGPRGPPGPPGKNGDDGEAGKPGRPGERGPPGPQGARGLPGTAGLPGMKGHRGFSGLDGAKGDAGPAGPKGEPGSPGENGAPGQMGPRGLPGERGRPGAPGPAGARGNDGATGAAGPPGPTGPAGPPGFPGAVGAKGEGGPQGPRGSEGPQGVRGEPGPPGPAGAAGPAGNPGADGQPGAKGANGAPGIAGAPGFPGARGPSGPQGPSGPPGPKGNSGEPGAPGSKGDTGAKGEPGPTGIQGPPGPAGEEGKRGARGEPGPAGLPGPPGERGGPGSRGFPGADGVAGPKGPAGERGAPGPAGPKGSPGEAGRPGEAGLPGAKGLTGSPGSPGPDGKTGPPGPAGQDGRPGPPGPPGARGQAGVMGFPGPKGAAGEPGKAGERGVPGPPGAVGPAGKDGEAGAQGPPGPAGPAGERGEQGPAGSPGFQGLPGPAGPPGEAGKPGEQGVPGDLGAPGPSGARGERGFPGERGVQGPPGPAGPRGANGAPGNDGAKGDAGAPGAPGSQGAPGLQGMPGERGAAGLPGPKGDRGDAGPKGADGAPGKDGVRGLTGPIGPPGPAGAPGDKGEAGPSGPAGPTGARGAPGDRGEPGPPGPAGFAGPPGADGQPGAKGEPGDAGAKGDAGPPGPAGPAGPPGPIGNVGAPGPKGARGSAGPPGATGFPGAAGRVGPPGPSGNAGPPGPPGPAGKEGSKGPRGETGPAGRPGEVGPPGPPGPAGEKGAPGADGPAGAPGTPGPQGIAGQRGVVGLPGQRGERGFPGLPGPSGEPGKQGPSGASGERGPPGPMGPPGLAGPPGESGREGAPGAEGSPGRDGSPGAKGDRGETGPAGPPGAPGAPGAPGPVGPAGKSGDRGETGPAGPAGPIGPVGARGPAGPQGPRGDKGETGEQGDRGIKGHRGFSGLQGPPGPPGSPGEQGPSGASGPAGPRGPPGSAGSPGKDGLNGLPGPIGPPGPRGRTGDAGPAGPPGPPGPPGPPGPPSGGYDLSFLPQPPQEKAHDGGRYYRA
T1 sequence (P02465 80-1117 limits assumed, chain 2 of 2): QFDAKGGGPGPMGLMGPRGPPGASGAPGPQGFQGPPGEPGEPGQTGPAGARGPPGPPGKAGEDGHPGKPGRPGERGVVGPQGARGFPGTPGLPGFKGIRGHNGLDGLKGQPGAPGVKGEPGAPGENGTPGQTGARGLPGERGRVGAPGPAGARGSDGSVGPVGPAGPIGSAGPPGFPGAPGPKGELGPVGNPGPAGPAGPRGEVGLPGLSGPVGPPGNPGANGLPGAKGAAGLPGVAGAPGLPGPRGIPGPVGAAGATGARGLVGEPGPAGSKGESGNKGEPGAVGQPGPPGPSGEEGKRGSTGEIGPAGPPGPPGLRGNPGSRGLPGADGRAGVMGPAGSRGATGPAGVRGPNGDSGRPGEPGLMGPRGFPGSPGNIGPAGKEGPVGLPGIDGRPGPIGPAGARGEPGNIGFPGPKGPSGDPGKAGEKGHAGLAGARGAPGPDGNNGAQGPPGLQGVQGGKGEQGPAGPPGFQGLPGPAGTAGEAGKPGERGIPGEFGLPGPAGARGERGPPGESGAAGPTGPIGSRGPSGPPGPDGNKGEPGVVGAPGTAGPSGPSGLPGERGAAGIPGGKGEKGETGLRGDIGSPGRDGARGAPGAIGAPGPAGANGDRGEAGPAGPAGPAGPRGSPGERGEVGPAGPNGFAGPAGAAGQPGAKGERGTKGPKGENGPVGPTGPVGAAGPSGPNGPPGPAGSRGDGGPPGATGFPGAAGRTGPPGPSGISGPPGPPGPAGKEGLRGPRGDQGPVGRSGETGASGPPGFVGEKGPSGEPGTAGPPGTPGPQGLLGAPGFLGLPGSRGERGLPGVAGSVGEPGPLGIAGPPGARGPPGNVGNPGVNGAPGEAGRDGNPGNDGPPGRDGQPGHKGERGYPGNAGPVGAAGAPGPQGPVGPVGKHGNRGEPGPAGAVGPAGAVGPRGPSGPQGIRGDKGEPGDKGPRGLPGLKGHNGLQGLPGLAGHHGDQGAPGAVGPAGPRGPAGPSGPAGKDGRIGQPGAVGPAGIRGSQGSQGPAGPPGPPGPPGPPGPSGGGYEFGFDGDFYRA

B1: recombinant fusion protein SFS-E (mature protein SFS of Streptococcus equi subsp. equi Bd 3221 with E-tag) (other)
chain: GAALVFGGLLGSLGGSSHQARPKEQPVSSIGDDDKSHKSSSDQPTNHQHQATSPSQPTAKSSGHHGNQPQSLSVNSQGNSSGQASEPQAIPNQHHQPQGKPQHLDLGKDNSSPQPQPKPQGNSPKLPEKGLNGENQKEPEQGERGLPGLNGENQKEPEQGERGEAGPPSTPNLEGNNRKNPLKGLDGENKPKEDLDGYNHGRRDGYRVGYEDGYGGKKHKGDYPKRFDESSPKEYNDYSQGYNDNYGNGNPD
notes: PCR fragment encoding the mature SFS was cloned into pG8SAET and purified from the periplasm on an anti-E tag column; both are treated as one molecule; also called recombinant protein SFS; not shown: 13 amino acid peptide tag (E-tag) encoded by vector pG8SAET
For B1, the binding result is on record as “no binding”.
